PMC7261193, “The ancillary N-terminal region of the yeast AP-1 transcription factor Yap8 contributes to its DNA binding specificity”

Tests used:
Conditions in all cases: protein: recombinant; tags: GST (N-term); chain copies: 2; label: 5' FAM; blunt
GST-Yap8 WT [1] = molecular target: T1, GST-Yap8 WT (Saccharomyces cerevisiae, UniProt Q06596 1-294); experiment: fluorescence anisotropy; series c; FA: 10 mM Tris-HCl pH 8, 50 mM NaCl, 0.5% NP-40, 1 mM DTT, 5% glycerol, 1 nM DNA, 25C (half volume protein elution buffer). Biotin EMSA: LightShift 1x buffer, 50 ng poly(dI-dC), 2.5% glycerol, 0.05% NP-40, 5 mM MgCl2, 20 fmol probe, RT 20 min. 32P EMSA: 10 mM Tris-HCl pH 8.0, 50 mM NaCl, 1 mM DTT, 0.05% NP-40, 100 ng poly(dI-dC), 6% glycerol, 4C 30 min
T1 sequence: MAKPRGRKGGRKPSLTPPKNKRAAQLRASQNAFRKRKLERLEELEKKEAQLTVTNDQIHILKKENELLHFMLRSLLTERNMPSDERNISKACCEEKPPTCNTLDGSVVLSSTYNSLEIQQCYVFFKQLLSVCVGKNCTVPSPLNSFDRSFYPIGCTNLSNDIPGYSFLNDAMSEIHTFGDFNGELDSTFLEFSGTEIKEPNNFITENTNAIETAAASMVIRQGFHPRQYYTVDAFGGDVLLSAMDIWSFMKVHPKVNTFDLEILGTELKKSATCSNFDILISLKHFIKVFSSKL

GST-Yap8-R7A = molecular target: T2, GST-Yap8-R7A (Saccharomyces cerevisiae, UniProt Q06596 1-294, R7A); experiment: fluorescence anisotropy; series b; FA: 10 mM Tris-HCl pH 8, 50 mM NaCl, 0.5% NP-40, 1 mM DTT, 5% glycerol, 1 nM DNA, 25C (half volume protein elution buffer). Biotin EMSA: LightShift 1x buffer, 50 ng poly(dI-dC), 2.5% glycerol, 0.05% NP-40, 5 mM MgCl2, 20 fmol probe, RT 20 min. 32P EMSA: 10 mM Tris-HCl pH 8.0, 50 mM NaCl, 1 mM DTT, 0.05% NP-40, 100 ng poly(dI-dC), 6% glycerol, 4C 30 min
T2 sequence: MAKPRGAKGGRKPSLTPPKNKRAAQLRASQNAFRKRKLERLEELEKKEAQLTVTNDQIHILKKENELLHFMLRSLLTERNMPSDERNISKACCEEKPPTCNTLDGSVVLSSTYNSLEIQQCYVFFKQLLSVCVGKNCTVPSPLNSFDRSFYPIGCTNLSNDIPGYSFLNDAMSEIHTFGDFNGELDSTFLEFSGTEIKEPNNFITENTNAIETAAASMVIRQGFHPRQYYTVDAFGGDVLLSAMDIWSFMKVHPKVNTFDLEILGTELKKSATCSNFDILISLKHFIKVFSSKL

GST-Yap8 WT [2] = molecular target: T1, GST-Yap8 WT; experiment: as above
GST-Yap8-R11A = molecular target: T3, GST-Yap8-R11A (Saccharomyces cerevisiae, UniProt Q06596 1-294, R11A); experiment: as above
T3 sequence: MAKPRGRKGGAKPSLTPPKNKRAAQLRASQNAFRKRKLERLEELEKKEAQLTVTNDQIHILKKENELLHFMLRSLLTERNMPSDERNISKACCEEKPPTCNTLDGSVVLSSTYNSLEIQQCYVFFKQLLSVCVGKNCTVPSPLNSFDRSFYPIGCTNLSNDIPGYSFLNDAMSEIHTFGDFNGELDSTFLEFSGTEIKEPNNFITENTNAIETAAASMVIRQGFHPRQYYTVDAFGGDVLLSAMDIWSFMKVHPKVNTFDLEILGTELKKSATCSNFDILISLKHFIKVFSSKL

GST-Yap8 WT [3] = molecular target: T1, GST-Yap8 WT; experiment: fluorescence anisotropy; series a; FA: 10 mM Tris-HCl pH 8, 50 mM NaCl, 0.5% NP-40, 1 mM DTT, 5% glycerol, 1 nM DNA, 25C (half volume protein elution buffer). Biotin EMSA: LightShift 1x buffer, 50 ng poly(dI-dC), 2.5% glycerol, 0.05% NP-40, 5 mM MgCl2, 20 fmol probe, RT 20 min. 32P EMSA: 10 mM Tris-HCl pH 8.0, 50 mM NaCl, 1 mM DTT, 0.05% NP-40, 100 ng poly(dI-dC), 6% glycerol, 4C 30 min
GST-Yap8-N20A = molecular target: T4, GST-Yap8-N20A (Saccharomyces cerevisiae, UniProt Q06596 1-294, N20A); experiment: as above
T4 sequence: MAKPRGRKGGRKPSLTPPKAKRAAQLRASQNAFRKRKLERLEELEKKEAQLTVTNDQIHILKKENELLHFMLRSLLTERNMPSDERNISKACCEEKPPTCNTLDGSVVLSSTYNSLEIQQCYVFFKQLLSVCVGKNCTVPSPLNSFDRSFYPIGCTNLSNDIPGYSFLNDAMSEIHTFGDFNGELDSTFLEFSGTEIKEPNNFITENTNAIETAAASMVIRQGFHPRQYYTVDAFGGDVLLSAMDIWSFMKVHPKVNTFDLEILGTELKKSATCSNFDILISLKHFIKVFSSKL

B1: ACR3-WT (FAM) (dsDNA)
DNA 1: CTTTTTGTTTGATTAATAATCAACTTTAGCG
DNA 2: CGCTAAAGTTGATTATTAATCAAACAAAAAG
Kd (GST-Yap8 WT [1]): 10.8 ± 3.5 nM | Kd (GST-Yap8-R7A): 13.4 ± 1.7 nM | Kd (GST-Yap8 WT [2]): 10.8 ± 1.7 nM | Kd (GST-Yap8-R11A): 18.9 ± 2.9 nM | Kd (GST-Yap8 WT [3]): 9.9 ± 1.4 nM | Kd (GST-Yap8-N20A): 25.5 ± 4.3 nM
